For 1 protein, Km results are on record in paper PMC7955952.

Substrate in the data set: Nc1ncnc2c1ncn2[C@@H]1O[C@H](COP(=O)(O)OP(=O)(O)OP(=O)(O)O)[C@@H](O)[C@H]1O
The data set is described as follows: Michaelis–Menten saturation kinetics. Format: biochemical, Homo sapiens. The settings on record: Mn2+ ATP-binding pocket.

B1: Focal adhesion kinase (FAK) (Homo sapiens) (protein)
chain: ETDDYAEIIDEEDTYTMPSTRDYEIQRERIELGRCIGEGQFGDVHQGIYMSPENPALAVAIKTCKNCTSDSVREKFLQEALTMRQFDHPHIVKLIGVITENPVWIIMELCTLGELRSFLQVRKYSLDLASLILYAYQLSTALAYLESKRFVHRDIAARNVLVSSNDCVKLGDFGLSRYMEDSTYYKASKGKLPIKWMAPESINFRRFTSASDVWMFGVCMWEILMHGVKPFQGVKNNDVIGRIENGERLPMPPNCPPTLYSLMTKCWAYDPSRRPRFTELKAQLSTILEEEKAQQEERMRMESRRQ
Regarding B1, the Km was found to be 6.4 ± 1.2 µM.

In general, Km refers to the concentration of substrate that gives half-maximal velocity.
